Laboratory results published in patent US20110045003A1 (SYNOVEX, published 2011).

T1: BSA coupled 37-mer Cad-11 peptide encompassing the Cad-11 immunogen (UniProt P55287 54-90, limits assumed, linked to BSA)
T1 construct: domain: 37-mer peptide encompassing the Cad-11 immunogen; also called Cad-11 antigen; Cad-11 peptide immunogen
T1 peptide (looked up): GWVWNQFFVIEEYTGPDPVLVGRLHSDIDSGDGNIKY

T2: Cad-18 EC1 domain peptide (region overlapping G1-G33 of Cad-11 EC1) (UniProt Q13634 54-86, conjugated to biotin)
T2 construct: domain: first 33 amino acids of the EC1 domain
T2 peptide (looked up): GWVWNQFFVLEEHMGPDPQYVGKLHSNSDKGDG

T3: Cad-24 EC1 domain peptide (region overlapping G1-G33 of Cad-11 EC1) (UniProt Q86UP0 45-77, conjugated to biotin)
T3 construct: domain: first 33 amino acids of the EC1 domain
T3 peptide (looked up): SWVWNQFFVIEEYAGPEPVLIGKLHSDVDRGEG

T4: Cad-7 EC1 domain peptide (region overlapping G1-G33 of Cad-11 EC1) (UniProt Q9ULB5 48-80, conjugated to biotin)
T4 construct: domain: first 33 amino acids of the EC1 domain
T4 peptide (looked up): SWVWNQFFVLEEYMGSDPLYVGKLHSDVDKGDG

T5: Peptide 1 (amino acids G1-P18 of the Cad-11 EC1 domain) (human)
T5 construct: Range counted on the EC1 domain; also called PEP1
T5 peptide: GWVWNQFFVIEEYTGPDP

T6: Peptide 2 (amino acids G15-N34 of the Cad-11 EC1 domain) (human)
T6 construct: Range counted on the EC1 domain; also called PEP2
T6 peptide: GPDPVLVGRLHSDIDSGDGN

T7: Peptide 3 (amino acids V19-Y37 of the human Cad-11 EC1 domain) (human)
T7 construct: also called PEP3; peptide V19-Y37
T7 peptide: VLVGRLHSDIDSGDGNIKY


Experiments:
[1] = molecular target: T1, BSA coupled 37-mer Cad-11 peptide …; test: ELISA on BSA coupled 37-mer peptide, coat 50 ng/ml; Cad-11 antigen, coat 50 ng/ml
[2] = molecular target: T1, BSA coupled 37-mer Cad-11 peptide …; test: ELISA on BSA coupled 37-mer peptides, coat 50 ng/ml
[3] = molecular target: T2, Cad-18 EC1 domain peptide (region …); test: ELISA on biotinylated EC1 domain peptide captured on a Neutravidin plate, goat anti-mouse IgG, TMB, A450
Description: (§1) The specificity of H1M1 and H14 anti-Cad-11 antibodies was tested further using an ELISA against the first 33 amino acids of the EC1 domains of Cad-11, Cad-7, Cad-8, Cad-20, Cad-24, Cad-9, Cad-18, and MN-Cad. Peptides corresponding to the region of Cad-7, Cad-8, Cad-20, Cad-24, Cad-9, Cad-18, MN-Cad that overlapped with the G1-G33 region of the Cad-11 EC1 domain were synthesized and conjugated to biotin. 100 μl of a 30 ng/ml solution of each of these peptides in PBS-Tween (0.05%) were incubated in each well of a 96-well Netravidin plate for 2-3 hrs at 4° C. and then washed twice with PBS-Tween (0.05%). Various concentrations of the anti-Cad-11 antibody were incubated in each well for 1 hr at 22° C. and then washed twice with PBS-Tween (0.05%). 100 μl of a 1/1000 dilution of a goat anti-mouse IgG secondary antibody were added to each well, incubated for 30 min at 22° C., and then washed twice with PBS-Tween (0.05%). 100 μl/well of room temperature TMB (3,3′,5,5′-tetramethylbenzidine) reagent was added to each well and color was allowed to develop for 5 min at 22° C.

[4] = molecular target: T3, Cad-24 EC1 domain peptide (region …); test: as above
Description: as §1

[5] = molecular target: T4, Cad-7 EC1 domain peptide (region …); test: as above
Description: as §1

[6] = molecular target: T5, Peptide 1 (amino acids G1-P18 of the …); test: ELISA on coated peptide or protein, antibody at one dilution, goat anti-mouse IgG, TMB, OD450
Description: (§2) To determine the epitope within the Cad-11 EC1 domain that the Peptide 4 Cad-11 EC1 antibodies H1M1 and H14 bind, four different peptides spanning the first 37 amino acids of the EC1 region (see FIG. 22) were immobilized in an ELISA format and the ability of the H1M1 and H14 antibodies to bind each of the four peptides was determined. 96-well Reactibind plates were coated overnight at 4° C. with 0.3 ng/well of Peptide 1 (amino acids G1-P18 of the Cad-11 EC1 domain), 0.3 ng/well of Peptide 2 (amino acids G15-N34 of the Cad-11 EC1 domain), 0.3 ng/well of Peptide 3 (amino acids V19-Y37 of the Cad-11 EC1 domain), 0.3 ng/well of the immunogen Peptide 4 (amino acids G1-G33 of the Cad-11 EC1 domain), 20 ng of a fusion protein including the entire EC1 domain (EFL), or 20 ng of control human Ig (Fc-block). The wells were washed twice with PBS-Tween (0.05%), blocked with casein in dH₂0 for 3 hrs at 22° C. and then washed again twice with PBS-Tween (0.05%). Various dilutions of the different Peptide 4 Cad-11 EC1 domain antibodies were transferred to the peptide- or protein-coated wells, incubated for 45 min at 22° C. and then washed twice with PBS-Tween (0.05%). 100 μl of a 1/1000 dilution of goat anti-mouse IgG secondary antibody (Jackson ImmunoResearch, West Grove, Pa.) were added to each well, incubated for 30 min at 22° C. and then washed twice with PBS-Tween (0.05%). 100 μl/well of room temperature TMB reagent was added to each well and color was allowed to develop for 5 min at 22° C.

[7] = molecular target: T6, Peptide 2 (amino acids G15-N34 of the …); test: as above
Description: as §2

[8] = molecular target: T7, Peptide 3 (amino acids V19-Y37 of the …); test: as above
Description: as §2

EC50 [1] [ng/mL] | binding differential (Cad-11 against Cad-8) [2] [fold] | binding result [3] | binding result [4] | binding result [5] | binding result [6] | binding result [7] | binding result [8] | Binder
6.8 | > 200 |  |  |  |  |  |  | humanized anti-Cad-11 EC1 antibody SDP051 (Vκ1/VH5) (antibody, IgG4, V domains shown, humanized IgG4 (S241P), kappa) VH: EVQLVQSGAEVKKPGASVKVSCKASGYSFTGYFMNWVRQAPGQGLEWIGRINPYTGDTFYNQKFKGRVTITVDKSTSTAYMELSSLRSEDTAVYYCGRLGSRYWYFDVWGQGTTVTVSS VL: DVLMTQTPLSSPVTLGQPASISCRSSQSIIHSNGNTYLEWYLQKPGQSPQLLIYKVSNRFSGVPDRFTGSGSGTDFTLKISRVEAEDVGVYYCFQGSHVPWTFGQGTKLEIK
 |  | no binding | no binding | no binding | no binding | binds | no binding | murine H1M1 monoclonal anti-Cad-11 EC1 antibody (hybridoma H1M1, ATCC PTA-9699) (antibody, V domains shown, Biotinylated when used as the labelled competitor in Example 14; the letters are unchanged., murine antibody raised against Peptide 4; also called SYN0012; SYN0012/H1M1) VH: EVQLQQSGPELVKPGASVKISCKASGYSFTGYFMNWVKQSHGKSLEWIGRINPYTGDTFYNQKFKGKATLTVDKSSSTAHMELLSLSSEDSAVYYCGRLGSRYWYFDVWGAGTTVTVSS VL: DVLMTQTPLSLPVSLGDQASISCRSSQSIIHSNGNTYLEWYLQKPGQSPKLLIYKVSNRFSGVPDRFTGSGSGTDFTLKISRVEAEDLGVYYCFQGSHVPWTFGGGTKLEIK
